Experiments:
Assay in all cases: holdup assay
Design in all cases: key: below the threshold = too weak to quantify, mostly under pKd 3.1 to 4
Inadl_8, Q8NI35 = biological target: Inadl_8, Q8NI35
Inadl_2, Q8NI35 = biological target: Inadl_2, Q8NI35
MAGI3_2, Q5TCQ9 = biological target: MAGI3_2, Q5TCQ9
RAPGEF6, Q8TEU7 = biological target: T1, RAPGEF6, Q8TEU7
T1 sequence (Q8TEU7 525-625, limits assumed, looked up): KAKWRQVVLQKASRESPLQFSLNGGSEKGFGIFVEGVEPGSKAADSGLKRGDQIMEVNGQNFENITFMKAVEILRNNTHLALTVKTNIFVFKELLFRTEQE

MAGI2_3, Q86UL8 = biological target: MAGI2_3, Q86UL8
APBA1_1, Q02410 = biological target: T2, APBA1_1, Q02410
T2 sequence (Q02410 651-752, limits assumed, looked up): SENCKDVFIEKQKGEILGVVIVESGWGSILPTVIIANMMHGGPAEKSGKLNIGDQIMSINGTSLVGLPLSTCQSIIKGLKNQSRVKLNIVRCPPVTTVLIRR

PDLIM1, O00151 = biological target: PDLIM1, O00151
PARD3_3, Q8TEW0 = biological target: PARD3_3, Q8TEW0
Inadl_4, Q8NI35 = biological target: Inadl_4, Q8NI35
MAGI2_4, Q86UL8 = biological target: MAGI2_4, Q86UL8
FRMPD2_1, Q68DX3 = biological target: FRMPD2_1, Q68DX3
NHERF4_2, Q86UT5 = biological target: NHERF4_2, Q86UT5
DLG3_3, Q92796 = biological target: T3, DLG3_3, Q92796
T3 sequence (Q92796 374-475, limits assumed, looked up): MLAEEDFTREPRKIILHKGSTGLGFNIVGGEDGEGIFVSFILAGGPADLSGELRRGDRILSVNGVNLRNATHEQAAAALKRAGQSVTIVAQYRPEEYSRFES

TJP3_3, O95049 = biological target: T4, TJP3_3, O95049
T4 sequence (O95049 375-456, limits assumed, looked up): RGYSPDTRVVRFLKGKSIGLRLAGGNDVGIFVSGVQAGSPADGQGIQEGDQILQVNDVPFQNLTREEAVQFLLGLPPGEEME

LDB3, O75112 = biological target: LDB3, O75112
ARHGAP21, Q5T5U3 = biological target: T5, ARHGAP21, Q5T5U3
T5 sequence (Q5T5U3 45-169, limits assumed, looked up): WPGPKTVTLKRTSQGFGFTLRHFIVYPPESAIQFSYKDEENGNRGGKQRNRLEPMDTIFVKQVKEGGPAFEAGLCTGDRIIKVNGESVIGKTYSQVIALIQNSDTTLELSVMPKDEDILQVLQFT

AHNAK1, Q09666 = biological target: AHNAK1, Q09666
APBA3_1, O96018 = biological target: T6, APBA3_1, O96018
T6 sequence (O96018 389-490, limits assumed, looked up): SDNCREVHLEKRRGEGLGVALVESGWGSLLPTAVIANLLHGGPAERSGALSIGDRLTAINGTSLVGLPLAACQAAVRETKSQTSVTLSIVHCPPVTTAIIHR

NHERF4_1, Q86UT5-2 = biological target: NHERF4_1, Q86UT5-2
SHANK1, Q9Y566 = biological target: T7, SHANK1, Q9Y566
T7 sequence (Q9Y566 658-767, limits assumed, looked up): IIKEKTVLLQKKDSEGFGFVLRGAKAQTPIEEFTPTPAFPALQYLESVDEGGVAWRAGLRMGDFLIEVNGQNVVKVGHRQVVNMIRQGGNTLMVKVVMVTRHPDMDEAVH

LRRC7, Q96NW7 = biological target: T8, LRRC7, Q96NW7
T8 sequence (Q96NW7 1440-1537, limits assumed, looked up): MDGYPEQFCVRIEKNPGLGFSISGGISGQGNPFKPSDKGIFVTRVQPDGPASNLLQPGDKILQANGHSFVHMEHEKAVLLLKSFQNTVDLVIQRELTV

GRID2IP_1, A4D2P6 = biological target: GRID2IP_1, A4D2P6
FRMPD1, Q5SYB0 = biological target: T9, FRMPD1, Q5SYB0
T9 sequence (Q5SYB0 52-145, limits assumed, looked up): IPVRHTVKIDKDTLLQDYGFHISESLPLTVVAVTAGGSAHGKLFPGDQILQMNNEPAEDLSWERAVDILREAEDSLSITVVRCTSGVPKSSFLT

LIN7C, Q9NUP9 = biological target: T10, LIN7C, Q9NUP9
T10 sequence (Q9NUP9 88-185, limits assumed, looked up): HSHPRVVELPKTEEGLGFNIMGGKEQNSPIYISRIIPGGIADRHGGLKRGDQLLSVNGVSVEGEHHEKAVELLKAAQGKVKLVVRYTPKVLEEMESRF

PTPN3, P26045 = biological target: PTPN3, P26045
DLG2_2, Q15700 = biological target: DLG2_2, Q15700
LNX2_3, Q8N448 = biological target: T11, LNX2_3, Q8N448
T11 sequence (Q8N448 463-564, limits assumed, looked up): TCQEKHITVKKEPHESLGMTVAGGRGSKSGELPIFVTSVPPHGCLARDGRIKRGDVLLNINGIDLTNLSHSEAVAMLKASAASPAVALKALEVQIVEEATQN

[1] = plain residues with an end cap or a label only (N-terminal biotin on a linker: ado-ado)
[2] = modified: phospho on T at position -2 from the C-terminal residue

Chain of GRID2IP_1, A4D2P6 (A4D2P6 1-87): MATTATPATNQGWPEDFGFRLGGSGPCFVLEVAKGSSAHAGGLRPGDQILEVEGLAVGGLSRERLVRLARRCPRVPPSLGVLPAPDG
Chain of PTPN3, P26045 (P26045 505-587): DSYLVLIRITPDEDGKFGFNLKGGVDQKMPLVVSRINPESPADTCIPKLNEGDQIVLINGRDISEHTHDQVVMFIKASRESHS
Chain of NHERF4_1, Q86UT5-2 (Q86UT5 other isoform, or with tags, fused parts or gaps): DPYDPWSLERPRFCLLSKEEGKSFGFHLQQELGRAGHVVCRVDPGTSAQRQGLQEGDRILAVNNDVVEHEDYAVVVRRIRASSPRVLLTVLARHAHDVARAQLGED
Chain of Inadl_2, Q8NI35 (Q8NI35 238-335): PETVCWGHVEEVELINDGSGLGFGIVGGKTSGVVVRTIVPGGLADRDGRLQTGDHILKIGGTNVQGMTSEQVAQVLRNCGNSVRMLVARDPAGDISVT
Chain of AHNAK1, Q09666 (Q09666 4-100): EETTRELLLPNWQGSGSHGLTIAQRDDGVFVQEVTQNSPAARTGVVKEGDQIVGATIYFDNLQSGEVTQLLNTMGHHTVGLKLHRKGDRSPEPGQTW
Chain of MAGI2_4, Q86UL8 (Q86UL8 772-865): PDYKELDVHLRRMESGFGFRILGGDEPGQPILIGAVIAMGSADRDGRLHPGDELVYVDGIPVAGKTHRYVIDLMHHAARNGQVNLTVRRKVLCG
Chain of FRMPD2_1, Q68DX3 (Q68DX3 770-861): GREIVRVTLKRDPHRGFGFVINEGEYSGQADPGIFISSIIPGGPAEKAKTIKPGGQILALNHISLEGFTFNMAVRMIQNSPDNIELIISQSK
Chain of PARD3_3, Q8TEW0 (Q8TEW0 582-685): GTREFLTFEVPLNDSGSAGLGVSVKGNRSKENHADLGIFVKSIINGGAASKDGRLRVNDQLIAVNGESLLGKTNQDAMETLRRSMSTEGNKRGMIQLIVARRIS
Chain of MAGI3_2, Q5TCQ9 (Q5TCQ9 398-503): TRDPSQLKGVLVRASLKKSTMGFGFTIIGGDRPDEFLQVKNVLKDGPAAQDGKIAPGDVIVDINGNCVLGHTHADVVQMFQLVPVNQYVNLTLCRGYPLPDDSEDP
Chain of Inadl_8, Q8NI35 (Q8NI35 1425-1530): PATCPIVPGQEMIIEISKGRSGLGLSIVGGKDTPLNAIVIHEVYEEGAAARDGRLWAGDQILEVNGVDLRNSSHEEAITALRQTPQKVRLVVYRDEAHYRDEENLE
Chain of DLG2_2, Q15700 (Q15700 189-283): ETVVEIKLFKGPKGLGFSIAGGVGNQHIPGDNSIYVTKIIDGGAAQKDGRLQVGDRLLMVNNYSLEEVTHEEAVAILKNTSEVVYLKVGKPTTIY
Chain of Inadl_4, Q8NI35 (Q8NI35 547-651): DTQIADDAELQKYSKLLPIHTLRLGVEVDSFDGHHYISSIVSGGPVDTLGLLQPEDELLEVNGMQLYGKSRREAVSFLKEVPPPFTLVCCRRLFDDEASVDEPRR
Chain of MAGI2_3, Q86UL8 (Q86UL8 600-682): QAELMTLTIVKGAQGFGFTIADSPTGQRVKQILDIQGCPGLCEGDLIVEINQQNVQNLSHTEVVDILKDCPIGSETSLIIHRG
Chain of PDLIM1, O00151 (O00151 1-87): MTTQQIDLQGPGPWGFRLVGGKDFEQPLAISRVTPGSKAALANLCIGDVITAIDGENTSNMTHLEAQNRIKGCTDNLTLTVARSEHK
Chain of LDB3, O75112 (O75112 1-94): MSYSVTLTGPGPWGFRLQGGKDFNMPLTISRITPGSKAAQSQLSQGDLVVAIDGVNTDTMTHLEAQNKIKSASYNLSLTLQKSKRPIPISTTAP
Chain of NHERF4_2, Q86UT5 (Q86UT5 220-308): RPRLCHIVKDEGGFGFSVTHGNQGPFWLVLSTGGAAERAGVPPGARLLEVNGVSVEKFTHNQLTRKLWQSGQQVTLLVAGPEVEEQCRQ

PRISRSQSEL [CCDC134, Q9H6E4]
pKd (Inadl_8, Q8NI35; [1]): below the threshold
pKd (Inadl_2, Q8NI35; [1]): below the threshold
pKd (MAGI3_2, Q5TCQ9; [1]): 4.25
pKd (RAPGEF6, Q8TEU7; [1]): below the threshold
pKd (MAGI2_3, Q86UL8; [1]): below the threshold
pKd (APBA1_1, Q02410; [1]): below the threshold
pKd (PDLIM1, O00151; [1]): below the threshold
pKd (PARD3_3, Q8TEW0; [1]): below the threshold
pKd (Inadl_4, Q8NI35; [1]): below the threshold
pKd (MAGI2_4, Q86UL8; [1]): below the threshold
pKd (FRMPD2_1, Q68DX3; [1]): below the threshold
pKd (NHERF4_2, Q86UT5; [1]): below the threshold
pKd (DLG3_3, Q92796; [1]): below the threshold
pKd (TJP3_3, O95049; [1]): below the threshold
pKd (LDB3, O75112; [1]): below the threshold
pKd (ARHGAP21, Q5T5U3; [1]): below the threshold
pKd (AHNAK1, Q09666; [1]): below the threshold
pKd (APBA3_1, O96018; [1]): below the threshold
pKd (NHERF4_1, Q86UT5-2; [1]): 3.86
pKd (SHANK1, Q9Y566; [1]): below the threshold
pKd (LRRC7, Q96NW7; [1]): below the threshold
pKd (GRID2IP_1, A4D2P6; [1]): below the threshold
pKd (FRMPD1, Q5SYB0; [1]): below the threshold
pKd (LIN7C, Q9NUP9; [1]): below the threshold
pKd (PTPN3, P26045; [1]): 4.22
pKd (DLG2_2, Q15700; [1]): below the threshold
pKd (LNX2_3, Q8N448; [1]): below the threshold

QGLAERISVL [PRKD2, Q9BZL6]
pKd (Inadl_8, Q8NI35; [1]): 3.8
pKd (Inadl_2, Q8NI35; [1]): below the threshold
pKd (MAGI3_2, Q5TCQ9; [1]): below the threshold
pKd (RAPGEF6, Q8TEU7; [1]): below the threshold
pKd (MAGI2_3, Q86UL8; [1]): below the threshold
pKd (APBA1_1, Q02410; [1]): below the threshold
pKd (PDLIM1, O00151; [1]): below the threshold
pKd (PARD3_3, Q8TEW0; [1]): 3.68
pKd (Inadl_4, Q8NI35; [1]): below the threshold
pKd (MAGI2_4, Q86UL8; [1]): below the threshold
pKd (FRMPD2_1, Q68DX3; [1]): below the threshold
pKd (NHERF4_2, Q86UT5; [1]): below the threshold
pKd (DLG3_3, Q92796; [1]): below the threshold
pKd (TJP3_3, O95049; [1]): below the threshold
pKd (LDB3, O75112; [1]): below the threshold
pKd (ARHGAP21, Q5T5U3; [1]): 3.93
pKd (AHNAK1, Q09666; [1]): below the threshold
pKd (APBA3_1, O96018; [1]): below the threshold
pKd (NHERF4_1, Q86UT5-2; [1]): 4.27
pKd (SHANK1, Q9Y566; [1]): 4.23
pKd (LRRC7, Q96NW7; [1]): below the threshold
pKd (GRID2IP_1, A4D2P6; [1]): below the threshold
pKd (FRMPD1, Q5SYB0; [1]): below the threshold
pKd (LIN7C, Q9NUP9; [1]): 4.12
pKd (PTPN3, P26045; [1]): 4.72
pKd (DLG2_2, Q15700; [1]): below the threshold
pKd (LNX2_3, Q8N448; [1]): below the threshold

RLQRRRETQV [HPV18-E6_-2P, P06463]
pKd (Inadl_8, Q8NI35; [2]): below the threshold
pKd (Inadl_2, Q8NI35; [2]): below the threshold
pKd (MAGI3_2, Q5TCQ9; [2]): below the threshold
pKd (RAPGEF6, Q8TEU7; [2]): below the threshold
pKd (MAGI2_3, Q86UL8; [2]): below the threshold
pKd (APBA1_1, Q02410; [2]): below the threshold
pKd (PDLIM1, O00151; [2]): below the threshold
pKd (PARD3_3, Q8TEW0; [2]): below the threshold
pKd (Inadl_4, Q8NI35; [2]): below the threshold
pKd (MAGI2_4, Q86UL8; [2]): below the threshold
pKd (FRMPD2_1, Q68DX3; [2]): below the threshold
pKd (NHERF4_2, Q86UT5; [2]): below the threshold
pKd (DLG3_3, Q92796; [2]): 3.52
pKd (TJP3_3, O95049; [2]): below the threshold
pKd (LDB3, O75112; [2]): below the threshold
pKd (ARHGAP21, Q5T5U3; [2]): 4.03
pKd (AHNAK1, Q09666; [2]): below the threshold
pKd (APBA3_1, O96018; [2]): below the threshold
pKd (NHERF4_1, Q86UT5-2; [2]): 3.6
pKd (SHANK1, Q9Y566; [2]): below the threshold
pKd (LRRC7, Q96NW7; [2]): below the threshold
pKd (GRID2IP_1, A4D2P6; [2]): below the threshold
pKd (FRMPD1, Q5SYB0; [2]): below the threshold
pKd (LIN7C, Q9NUP9; [2]): 4.07
pKd (PTPN3, P26045; [2]): below the threshold
pKd (DLG2_2, Q15700; [2]): 3.48
pKd (LNX2_3, Q8N448; [2]): below the threshold
